Results on 1 molecule are retold here after US20190055527A1 (KYUSHU UNIVERSITY NATIONAL UNIVERSITY, published 2019).

Common to all, as to experiment: SPR (BIAcore J), PfuPCNA immobilised on CM5 chip, polymerase variant as analyte, 25° C.
In one assay the target is T1, Taq81 (PIP-L5-Taq) (Thermus aquaticus, UniProt P19821 1-832).
T1 construct: expressed in E. coli and purified; also called DNA polymerase variant Taq81
As for the experimental part:
(§1) In the surface plasmon resonance (SPR) analysis, BIAcore J (manufactured by BIACORE) was used. A PCNA from Pyrococcus furiosus (J. Bacteriology, 181, 6591-6599, 1999: hereinafter referred to as PfuPCNA) was immobilized on a CM5 sensor chip (manufactured by GE Healthcare) by amine coupling, and the measurement was carried out under the conditions of 25° C., a flow rate of 30 μL/minutes, and a solution E (10 mM Tris-HCl, 50 mM KCl, 1.5 mM MgCl₂, pH 8.3). A sample solution of Taq81 to Taq85 diluted to 10, 20, 40, 80, 160, or 320 nM or a sample solution of Taq94 diluted to 125 nM, 250 nM, 500 nM, 1 μM, or 2 μM was each added for 2 minutes. The sensorgrams obtained were analyzed by BIA evaluation program, and the dissociation constants (Kd) between Taq81 to Taq85 and PfuPCNA and between Taq94 and PfuPCNA were calculated.
(§2) The dissociation constants (Kd) with respect to the bindings between five kinds of Taq DNA polymerases to which PIP box was added at an N-terminal, each having a different length of a linker peptide (Taq81, Taq82, Taq83, Taq84, and Taq85), and PfuPCNA were calculated. As a result, the values were 7.1×10⁻⁷ M, 4.4×10⁻⁷ M, 2.4×10⁻⁷ M, 2.5×10⁻⁷ M, and 2.0×10⁻⁷ M, which were nearly of the same level regardless of the lengths of the linker peptides.

A further assay deals with T2, Taq94 (Taq-L15-PIP) (Thermus aquaticus, UniProt P19821 1-832).
T2 construct: Taq DNA polymerase, 15-residue Ser/Gly linker, PfuRFCL PIP box at the C-terminus; also called DNA polymerase variant Taq94
As for the experimental part: as §1, §2

In another assay the target is T3, Taq84 (PIP-L35-Taq) (Thermus aquaticus, UniProt P19821 1-832).
T3 construct: N-terminal PfuRFCL PIP box, 35-residue Ser/Gly linker, Taq DNA polymerase; also called DNA polymerase variant Taq84
As for the experimental part: as §1, §2

A further assay concerns the target T4, Taq82 (PIP-L10-Taq) (Thermus aquaticus, UniProt P19821 1-832).
T4 construct: N-terminal PfuRFCL PIP box, 10-residue Ser/Gly linker, Taq DNA polymerase; also called DNA polymerase variant Taq82
Here is the method:
as §1, §2

The target in another assay is T5, Taq85 (PIP-L47-Taq) (Thermus aquaticus, UniProt P19821 1-832).
T5 construct: N-terminal PfuRFCL PIP box, 47-residue Ser/Gly linker, Taq DNA polymerase; also called DNA polymerase variant Taq85
Here is the method:
as §1, §2

For another assay, the target named is T6, Taq83 (PIP-L15-Taq) (Thermus aquaticus, UniProt P19821 1-832).
T6 construct: N-terminal PfuRFCL PIP box, 15-residue Ser/Gly linker, Taq DNA polymerase; also called DNA polymerase variant Taq83
As for the experimental part: as §1, §2

T4 sequence (P19821 other isoform, or with tags, fused parts or gaps): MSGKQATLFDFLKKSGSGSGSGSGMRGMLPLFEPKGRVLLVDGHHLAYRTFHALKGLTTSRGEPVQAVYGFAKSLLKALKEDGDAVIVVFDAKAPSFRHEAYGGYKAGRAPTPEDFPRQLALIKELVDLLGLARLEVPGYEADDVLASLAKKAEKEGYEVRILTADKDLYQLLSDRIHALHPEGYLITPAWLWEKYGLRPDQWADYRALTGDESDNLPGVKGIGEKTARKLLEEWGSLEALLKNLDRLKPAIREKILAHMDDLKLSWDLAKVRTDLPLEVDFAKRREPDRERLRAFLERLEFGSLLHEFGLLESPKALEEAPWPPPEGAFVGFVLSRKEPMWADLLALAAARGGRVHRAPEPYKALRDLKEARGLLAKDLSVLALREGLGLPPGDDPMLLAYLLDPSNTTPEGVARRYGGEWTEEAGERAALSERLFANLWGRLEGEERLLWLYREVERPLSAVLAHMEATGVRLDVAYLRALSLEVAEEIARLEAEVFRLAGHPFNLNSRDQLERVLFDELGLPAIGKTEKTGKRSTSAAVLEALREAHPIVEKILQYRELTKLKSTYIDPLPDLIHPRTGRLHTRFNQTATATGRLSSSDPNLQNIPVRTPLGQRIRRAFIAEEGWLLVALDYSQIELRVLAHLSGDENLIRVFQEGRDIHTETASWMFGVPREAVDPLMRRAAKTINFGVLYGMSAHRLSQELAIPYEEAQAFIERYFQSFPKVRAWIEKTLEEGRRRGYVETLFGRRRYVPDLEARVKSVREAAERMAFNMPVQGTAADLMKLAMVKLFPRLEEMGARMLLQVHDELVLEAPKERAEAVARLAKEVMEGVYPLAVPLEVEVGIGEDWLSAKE
T5 sequence (P19821 other isoform, or with tags, fused parts or gaps): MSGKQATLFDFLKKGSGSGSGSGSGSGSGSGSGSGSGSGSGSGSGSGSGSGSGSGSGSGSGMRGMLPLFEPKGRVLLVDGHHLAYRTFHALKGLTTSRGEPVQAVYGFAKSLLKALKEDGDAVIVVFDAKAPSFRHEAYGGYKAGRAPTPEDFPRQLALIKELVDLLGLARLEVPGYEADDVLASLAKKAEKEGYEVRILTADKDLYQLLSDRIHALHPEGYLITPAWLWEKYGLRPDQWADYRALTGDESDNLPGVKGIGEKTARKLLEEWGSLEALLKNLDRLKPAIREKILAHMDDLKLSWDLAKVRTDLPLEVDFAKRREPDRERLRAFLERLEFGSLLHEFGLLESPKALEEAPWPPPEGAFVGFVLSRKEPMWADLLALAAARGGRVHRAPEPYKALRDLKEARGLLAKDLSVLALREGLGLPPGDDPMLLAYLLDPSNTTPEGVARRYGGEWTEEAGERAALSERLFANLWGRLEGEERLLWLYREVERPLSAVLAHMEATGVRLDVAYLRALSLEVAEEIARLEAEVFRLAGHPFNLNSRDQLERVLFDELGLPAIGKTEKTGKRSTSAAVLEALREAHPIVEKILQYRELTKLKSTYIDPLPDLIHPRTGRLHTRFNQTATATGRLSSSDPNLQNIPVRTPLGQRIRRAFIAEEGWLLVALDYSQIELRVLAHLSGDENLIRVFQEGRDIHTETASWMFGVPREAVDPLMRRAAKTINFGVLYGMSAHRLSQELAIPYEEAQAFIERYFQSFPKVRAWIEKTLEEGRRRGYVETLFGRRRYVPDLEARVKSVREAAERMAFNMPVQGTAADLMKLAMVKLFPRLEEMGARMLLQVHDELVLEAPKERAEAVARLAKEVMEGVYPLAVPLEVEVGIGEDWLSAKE
T6 sequence (P19821 other isoform, or with tags, fused parts or gaps): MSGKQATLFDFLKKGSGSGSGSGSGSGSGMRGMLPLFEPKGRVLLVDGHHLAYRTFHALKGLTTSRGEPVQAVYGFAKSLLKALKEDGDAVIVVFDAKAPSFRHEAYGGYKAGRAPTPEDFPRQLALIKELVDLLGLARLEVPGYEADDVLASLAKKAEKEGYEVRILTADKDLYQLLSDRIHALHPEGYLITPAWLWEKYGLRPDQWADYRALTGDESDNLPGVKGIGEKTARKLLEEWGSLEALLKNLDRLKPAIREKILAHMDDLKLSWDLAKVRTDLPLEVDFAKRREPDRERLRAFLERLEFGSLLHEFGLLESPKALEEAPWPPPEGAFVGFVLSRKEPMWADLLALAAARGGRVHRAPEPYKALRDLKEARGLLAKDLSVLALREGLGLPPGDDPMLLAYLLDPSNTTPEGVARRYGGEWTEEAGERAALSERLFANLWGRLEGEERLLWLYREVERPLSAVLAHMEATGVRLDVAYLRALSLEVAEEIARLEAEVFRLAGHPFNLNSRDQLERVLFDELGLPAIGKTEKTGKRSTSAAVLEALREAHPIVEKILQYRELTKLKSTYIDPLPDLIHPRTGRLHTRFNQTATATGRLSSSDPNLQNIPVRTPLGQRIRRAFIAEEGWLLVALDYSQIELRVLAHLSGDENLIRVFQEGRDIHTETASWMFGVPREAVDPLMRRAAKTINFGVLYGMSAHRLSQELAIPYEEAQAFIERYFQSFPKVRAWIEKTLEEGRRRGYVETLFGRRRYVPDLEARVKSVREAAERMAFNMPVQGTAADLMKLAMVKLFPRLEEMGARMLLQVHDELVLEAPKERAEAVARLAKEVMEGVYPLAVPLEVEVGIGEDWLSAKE
T3 sequence (P19821 other isoform, or with tags, fused parts or gaps): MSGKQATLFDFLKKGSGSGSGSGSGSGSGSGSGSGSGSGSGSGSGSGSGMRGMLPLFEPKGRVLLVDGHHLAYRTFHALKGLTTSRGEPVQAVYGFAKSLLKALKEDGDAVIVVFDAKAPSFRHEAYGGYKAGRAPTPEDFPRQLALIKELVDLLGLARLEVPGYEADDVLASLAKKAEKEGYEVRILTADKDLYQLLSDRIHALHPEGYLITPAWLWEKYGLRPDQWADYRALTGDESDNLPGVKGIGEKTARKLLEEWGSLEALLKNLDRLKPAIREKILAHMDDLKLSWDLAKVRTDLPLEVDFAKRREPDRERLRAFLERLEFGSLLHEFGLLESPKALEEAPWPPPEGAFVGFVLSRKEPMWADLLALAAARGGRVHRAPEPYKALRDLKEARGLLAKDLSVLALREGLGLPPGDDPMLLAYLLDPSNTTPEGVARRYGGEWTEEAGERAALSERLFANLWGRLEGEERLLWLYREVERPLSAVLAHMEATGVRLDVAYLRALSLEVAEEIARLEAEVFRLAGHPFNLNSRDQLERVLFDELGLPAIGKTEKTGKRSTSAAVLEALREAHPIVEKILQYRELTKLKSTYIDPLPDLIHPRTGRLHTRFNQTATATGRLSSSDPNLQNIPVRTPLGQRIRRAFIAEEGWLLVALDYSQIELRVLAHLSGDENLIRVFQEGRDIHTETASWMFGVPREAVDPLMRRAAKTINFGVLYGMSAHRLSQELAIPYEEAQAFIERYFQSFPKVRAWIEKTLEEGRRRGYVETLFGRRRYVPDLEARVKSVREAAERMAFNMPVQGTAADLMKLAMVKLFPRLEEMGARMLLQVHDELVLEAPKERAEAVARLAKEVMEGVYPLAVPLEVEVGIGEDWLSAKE
T1 sequence (P19821 other isoform, or with tags, fused parts or gaps): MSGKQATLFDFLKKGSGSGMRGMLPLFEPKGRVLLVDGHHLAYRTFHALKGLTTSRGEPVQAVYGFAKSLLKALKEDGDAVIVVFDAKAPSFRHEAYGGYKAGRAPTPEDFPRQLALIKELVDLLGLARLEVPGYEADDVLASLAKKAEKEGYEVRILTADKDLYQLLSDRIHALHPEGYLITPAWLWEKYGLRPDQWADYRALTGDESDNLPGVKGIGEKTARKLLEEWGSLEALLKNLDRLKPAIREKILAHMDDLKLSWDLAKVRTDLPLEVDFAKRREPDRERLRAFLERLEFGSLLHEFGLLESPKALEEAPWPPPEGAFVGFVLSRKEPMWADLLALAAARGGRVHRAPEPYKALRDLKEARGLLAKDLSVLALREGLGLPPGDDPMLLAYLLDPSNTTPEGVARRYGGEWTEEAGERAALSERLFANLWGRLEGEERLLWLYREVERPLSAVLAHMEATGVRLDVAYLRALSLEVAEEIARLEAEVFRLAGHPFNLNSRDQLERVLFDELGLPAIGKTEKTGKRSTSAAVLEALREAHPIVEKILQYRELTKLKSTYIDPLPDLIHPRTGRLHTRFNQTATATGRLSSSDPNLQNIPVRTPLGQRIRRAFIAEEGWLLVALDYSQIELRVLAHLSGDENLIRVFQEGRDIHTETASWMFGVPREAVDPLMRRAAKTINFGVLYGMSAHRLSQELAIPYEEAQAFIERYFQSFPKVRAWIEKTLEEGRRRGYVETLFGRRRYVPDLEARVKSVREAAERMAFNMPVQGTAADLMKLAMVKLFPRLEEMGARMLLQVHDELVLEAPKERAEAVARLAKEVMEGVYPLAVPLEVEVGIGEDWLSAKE

B1: PCNA from Pyrococcus furiosus (other, UniProt O73947 1-249, looked up)
chain: MPFEIVFEGAKEFAQLIDTASKLIDEAAFKVTEDGISMRAMDPSRVVLIDLNLPSSIFSKYEVVEPETIGVNMDHLKKILKRGKAKDTLILKKGEENFLEITIQGTATRTFRVPLIDVEEMEVDLPELPFTAKVVVLGEVLKDAVKDASLVSDSIKFIARENEFIMKAEGETQEVEIKLTLEDEGLLDIEVQEETKSAYGVSYLSDMVKGLGKADEVTIKFGNEMPMQMEYYIRDEGRLTFLLAPRVEE
notes: Wild-type PfuPCNA immobilised on a CM5 chip by amine coupling; also called PfuPCNA
For B1, the Kd in the assay with Taq81 (PIP-L5-Taq) is 710 nM; in the assay with Taq94 (Taq-L15-PIP), 2500 nM; with Taq84 (PIP-L35-Taq) it was 250 nM; with Taq82 (PIP-L10-Taq) it was 440 nM; in the assay with Taq85 (PIP-L47-Taq) it was 200 nM; with Taq83 (PIP-L15-Taq), 240 nM.

As a reminder, the Kd is the free concentration of one partner at which half of the binding sites on the other are occupied at equilibrium, for simple one-to-one binding.
